Experimental findings from patent publication US20250270309A1 (Eli Lilly, published 2025) are described below.

What is called Kd is the concentration at which binding is half-saturated. A lower Kd goes with higher affinity.

In one experiment the target is T1, mouse IL-19 (mouse, UniProt Q8CJ70 25-176, limits assumed).
T1 construct: Used as immunogen and for panning; in the in-house ELISA it is the IL-19 secreted in mouse ear cultures; also called murine IL-19
T1 sequence (looked up): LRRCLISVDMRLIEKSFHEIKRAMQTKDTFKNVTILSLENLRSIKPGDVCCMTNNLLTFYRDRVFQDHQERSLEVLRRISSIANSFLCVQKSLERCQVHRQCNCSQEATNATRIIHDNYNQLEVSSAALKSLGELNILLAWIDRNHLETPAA
The experiment is described as follows: yeast surface display of single-chain Fab library, panning with mouse IL-19.

Experiment [1] deals with T2, human IL-19 (human, UniProt Q9UHD0 25-177).
T2 sequence: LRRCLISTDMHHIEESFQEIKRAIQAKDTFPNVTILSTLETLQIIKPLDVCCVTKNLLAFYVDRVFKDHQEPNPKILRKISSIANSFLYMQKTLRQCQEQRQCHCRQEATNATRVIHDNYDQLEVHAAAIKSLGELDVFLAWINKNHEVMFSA
The experiment is described as follows: cell-based or functional assay.

Experiment [2] deals with T3, cyno IL-19 (cyno).
T3 chain: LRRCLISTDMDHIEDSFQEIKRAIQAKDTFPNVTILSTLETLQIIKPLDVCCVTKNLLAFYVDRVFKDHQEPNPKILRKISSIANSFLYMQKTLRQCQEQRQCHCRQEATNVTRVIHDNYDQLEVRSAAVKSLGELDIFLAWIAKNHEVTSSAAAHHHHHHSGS
The experiment is described as follows: cell-based or functional assay.

In experiment [3] the target is T2, human IL-19. The experiment is described as follows: cell-based or functional assay. The source holds these as a separate data set.
Experiment [4] concerns the target T3, cyno IL-19. The experiment is described as follows: cell-based or functional assay.
Experiment [5] concerns the target T2, human IL-19. The experiment is described as follows: MSD-SET solution equilibrium titration, 10 pM fixed biotinylated human IL-19, 37 C, mean of 3 experiments. The source says: A Meso Scale Discovery Solution Equilibrium Titration (MSD-SET) assay, measured with a SECTOR® Imager 6000 (Meso Scale Diagnostics), is used to assess binding of exemplified IL-19 antibodies of the present invention to biotinylated human IL-19 (having the amino acid sequence set for in SEQ ID NO: 1).
Except as noted, all the reagents and materials are from Meso Scale Diagnostics (Rockville, Maryland). Recombinant human IL-19 reagents are biotinylated using the EZ-link sulfo-NHS-Biotin kit (Thermo Cat #A39257). Briefly, 20 pM biotinylated human IL-19 is mixed in a 1:1 ratio with a 3-fold dilution series of exemplified antibody samples of the present invention (mAb 1 and mAb 2) to give a final concentration of: 10 pM biotinylated human IL-19 and a 11-point 3-fold antibody gradient from 1 nM to 0.017 pM. The mix is incubated at 37° C. for 72 hrs. […] After washing three times with wash buffer, 150 μL of 1× Read Buffer T (Cat. #R92TC-1) is added to the well and analyzed on a SECTOR® Imager 6000 (Meso Scale Diagnostics) 5 min after buffer addition. […]
The equilibrium KD is determined by fitting a sigmoidal curve to the electrochemiluminescence (ECL) response vs. log (IL-19 concentration) using assay development tool kit graphed with normalized ECL values.

B1: anti-murine IL-19 Ab mAb4 (antibody, V domains shown)
VH: QEQLKESGGGLVQPGGSLKLSCKASGFPLSSYGFSWVRQAPGKGLEWIGYLDPVFGSTLSAHTVNGRLTISSDNAQNTLYLQLNSLTAADTATYFCARGIGYVYYGYTYDLWGPGTLVTVSS
VL: DIVMTQTPASVEAAVGGTVTIKCSASASIYEYLSWYQQKPGQRPKLLIYGASVLTDGVSSRFKGSGSGTEFTLTISDLEAADAATYYCQSYNDGSSSGDAHVFGGGTEVVVK
notes: also called anti-murine IL-19 Ab4
In the case of B1, in the experiment with mouse IL-19, the binding result is listed as “binds”.

B2: Ab1 (antibody, human IgG4 S228P, kappa, F234A L235A, V domains shown)
VH: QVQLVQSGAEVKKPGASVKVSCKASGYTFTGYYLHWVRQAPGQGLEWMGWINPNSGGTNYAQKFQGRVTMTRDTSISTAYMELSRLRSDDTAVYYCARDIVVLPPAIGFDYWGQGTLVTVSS
VL: AIQLTQSPSSLSASVGDRVTITCRASQDIRSDFGWYQQKPGKAPKLLIYAASSLQSGVPSRFSGSGSGTDFTLTISSLQPEDFATYYCLQDYNYPWTFGQGTKVEIKR
notes: Anti-human IL-19 antibody; Detected with anti-human IgG4 reagents in the PK ELISA, so IgG4; also called mAb 1; mAb1
Turning to B2, the “IC50 for human IL-19 (IL-19 induced IL20Ra/IL20Rb receptor dimerization signal, U2OS PathHunter cells)” value with human IL-19 [1] was 3.46 nM. Moreover, the “IC50 for Cyno IL-19 (IL-19 induced IL20Ra/IL20Rb receptor dimerization signal, U2OS PathHunter cells)” value with cyno IL-19 [2] was found to be 2.79 nM. For the same molecule, the “IC50 with human IL-19 (IL-19 induced phospho-STAT3 signal, A431 cells)” value with human IL-19 [3] stood at 2.31 nM. Moreover, in the experiment with cyno IL-19 [4], the “IC50 with Cyno IL-19 (IL-19 induced phospho-STAT3 signal, A431 cells)” value is 1.82 nM. The Kd in the experiment with human IL-19 [5] is 0.0131 nM.

B3: Ab2 (antibody, human IgG4 S228P, kappa, F234A L235A, V domains shown)
VH: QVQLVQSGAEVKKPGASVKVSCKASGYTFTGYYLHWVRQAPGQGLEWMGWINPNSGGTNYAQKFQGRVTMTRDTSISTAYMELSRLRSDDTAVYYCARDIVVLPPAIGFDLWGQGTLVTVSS
VL: AIQLTQSPSSLSASVGDRVTITCRASQDIRSDFGWYQQKPGKAPKLLIYAASSLQSGVPSRFSGSGSGTDFTLTISSLQPEDFATYYCLQDYNYPWTFGQGTKVEIKR
notes: Anti-human IL-19 antibody; also called mAb 2; mAb2
Regarding B3, the “IC50 for human IL-19 (IL-19 induced IL20Ra/IL20Rb receptor dimerization signal, U2OS PathHunter cells)” value with human IL-19 [1] was 3.47 nM. The “IC50 for Cyno IL-19 (IL-19 induced IL20Ra/IL20Rb receptor dimerization signal, U2OS PathHunter cells)” value with cyno IL-19 [2] worked out at 2.87 nM. Also, the “IC50 with human IL-19 (IL-19 induced phospho-STAT3 signal, A431 cells)” value with human IL-19 [3] amounted to 2.21 nM. In the experiment with cyno IL-19 [4], the “IC50 with Cyno IL-19 (IL-19 induced phospho-STAT3 signal, A431 cells)” value is 1.84 nM. The Kd with human IL-19 [5] was found to be 0.0068 nM.

B4: anti-murine IL-19 Ab mAb 3 (antibody, V domains shown)
VH: QQLEESGGGLAKPEGSLTLTCKTSGFDLSSTYYMSWVRQAPGKGLEWIASIVTSGRSGASYYANWAKGRFTISKTSSTTVTLQMTSLAAADTASYFCVRDLPAPTDDRGLWGPGTLVVVSS
VL: AQVLTQTPSSVSEPVGGTVTINCQASESVYNKNWLSWFQQKPGQPPKLLIYDSSDLASGVPSRFKGSGSGTHFTLTISDVQCGDAATYYCGGSYTDTYVFGGGTEVVVK
notes: also called anti-murine IL-19 Ab3
As to B4, the binding result with mouse IL-19 is “binds”.
